According to US20180305450A1 (AstraZeneca / MedImmune, published 2018):

Tests used:
[1] = biological target: T1, recombinant biotinylated cynomolgus (Macaca fascicularis) PAR2 extracellular residues 1-75, N-terminal … (cynomolgus (Macaca fascicularis)); assay: Biacore SPR 25 C, pH 5.6
T1 construct: range 1-75; also called cynomolgus PAR2
Protocol: (§1) The experiments were carried out using recombinant human, rat and cynomolgus PAR2 with an N-terminal Avi tag and C-terminal Flag-His tags.
(§2) Streptavidin was covalently immobilised to a C1 chip surface using standard amine coupling techniques at a concentration of 4 μg/ml in 10 mM Sodium acetate pH 4.5. A final streptavidin surface of approximately 30-100 RUs was achieved. Recombinant biotinylated PAR2 species (produced in-house) were titrated onto the streptavidin chip surface at 4 μg/ml in HBS-EP+ buffer to enable Fab binding at saturation (Rₘₐₓ). This low level of analyte binding ensured minimal mass transport effects.
(§3) The anti-PAR2 Fabs were serially diluted (0.39 nM-25 nM) in HBS-EP+ buffer pH 7.4 or MES-BS-EP+ pH 6.0 buffer or in MES-BS-EP+ pH 5.6 buffer and flowed over the chip at 50 μl/min, with 3 minutes association and up to 30 minutes dissociation. Multiple buffer-only injections were made under the same conditions to allow for double reference subtraction of the final sensorgram sets, which were analysed using the BiaEval software (version 2.0.1). The chip surface was fully regenerated with pulses of 4 M MgCl₂.

[2] = biological target: T2, recombinant biotinylated human PAR2 extracellular domain (residues 1-75), N-terminal AviTag, C-terminal Flag … (human, UniProt P55085 26-75, biotin on the AviTag (enzymatic biotinylation)); assay: Biacore SPR 25 C, pH 5.6
T2 construct: also called Bio-human-PAR2 ECD; human PAR2 ECD; not shown: N-terminal AviTag (Avidity LLC); C-terminal Flag and poly Histidine tags
Protocol: as §1, §2, §3

[3] = biological target: T1, recombinant biotinylated cynomolgus …; assay: Biacore SPR 25 C, pH 6.0
Protocol: as §1, §2, §3

[4] = biological target: T2, recombinant biotinylated human PAR2 …; assay: Biacore SPR 25 C, pH 6.0
Protocol: as §1, §2, §3

[5] = biological target: T2, recombinant biotinylated human PAR2 …; assay: Biacore SPR 25 C, pH 6.0; remark: listed apart in the source
[6] = biological target: T3, recombinant biotinylated rat PAR2 extracellular residues 1-75, N-terminal AviTag, C-terminal Flag and poly … (rat, UniProt Q63645 26-75, not fully specified; biotin on the AviTag (enzymatic biotinylation)); assay: Biacore SPR 25 C, pH 6.0
T3 construct: range 1-75; not shown: N-terminal AviTag (Avidity LLC); C-terminal Flag and poly Histidine tags
T3 chain (looked up): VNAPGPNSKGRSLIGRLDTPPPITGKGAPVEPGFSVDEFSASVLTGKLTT

[7] = biological target: T1, recombinant biotinylated cynomolgus …; assay: Biacore SPR 25 C, pH 7.4
Protocol: as §1, §2, §3

[8] = biological target: T2, recombinant biotinylated human PAR2 …; assay: Biacore SPR 25 C, pH 7.4
Protocol: as §1, §2, §3

[9] = biological target: T2, recombinant biotinylated human PAR2 …; assay: Biacore SPR 25 C, pH 7.4; remark: listed apart in the source
[10] = biological target: T3, recombinant biotinylated rat PAR2 …; assay: Biacore SPR 25 C, pH 7.4
[11] = biological target: T2, recombinant biotinylated human PAR2 …; assay: Biacore SPR 25 C, pH 7.4; pH 7.4; human; second determination
Protocol: as §1, §2, §3

[12] = biological target: T1, recombinant biotinylated cynomolgus …; assay: Biacore SPR 25 C, pH 7.4 (second row)
Protocol: as §1, §2, §3

[13] = biological target: T2, recombinant biotinylated human PAR2 …; assay: Biacore SPR 25 C, pH 7.4 (second row)
Protocol: as §1, §2, §3

[14] = biological target: T1, recombinant biotinylated cynomolgus …; assay: Biacore SPR 25 C, pH 6.0 (second row)
Protocol: as §1, §2, §3

[15] = biological target: T2, recombinant biotinylated human PAR2 …; assay: Biacore SPR 25 C, pH 6.0 (second row)
Protocol: as §1, §2, §3

T2 sequence (P55085 26-75): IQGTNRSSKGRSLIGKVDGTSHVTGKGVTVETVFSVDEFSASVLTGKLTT

B1: PaB670129 Fab (Fab, V domains shown)
VH: EVQLLESGGGLVQPGGSLRLSCAASGFTFSSYAMNWVRQAPGKGLEWVSTISYHGSHISYHDSVHHRFTISRDNSKNTLYLQMNSLRAEDTAVYYCARIHHDPMDVWGQGTLVTVSS
VL: SIELTQPPSVSVSPGQTASITCSGDNLGKKYVQWYQQKPGQSPVLVIYDDSNRPSGIPERFSGSNSGNTATLTISGTQAMDEADYYCQTWDGNPTTGETNVFGGGTKLTVL
notes: Fab; also called ZZ1RUE-F02
A Kd [1] of 37.8 nM, a koff [1] of 0.139 s⁻¹ and a kon [1] of 3.66e+06 M⁻¹ s⁻¹ were found for B1 in this work. The Kd [2] was 84.5 nM, the koff [2] was 0.112 s⁻¹ and the kon [2] was 1.33e+06 M⁻¹ s⁻¹. The Kd [3] was 12.8 nM, the koff [3] was 0.0275 s⁻¹ and the kon [3] was 2.14e+06 M⁻¹ s⁻¹. For the same binder, the Kd [4] was 36.9 nM, the koff [4] was 0.0576 s⁻¹ and the kon [4] was 1.56e+06 M⁻¹ s⁻¹. The Kd [5] was 34.8 nM, the koff [5] was 0.0554 s⁻¹ and the kon [5] was 1.59e+06 M⁻¹ s⁻¹. The Kd [6] was 57.9 nM, the koff [6] was 0.0841 s⁻¹ and the kon [6] was 1.45e+06 M⁻¹ s⁻¹. For the same binder, the Kd [7] was 0.333 nM, the koff [7] was 0.00223 s⁻¹ and the kon [7] was 6.67e+06 M⁻¹ s⁻¹. The Kd [8] was 0.748 nM, the koff [8] was 0.00534 s⁻¹ and the kon [8] was 7.14e+06 M⁻¹ s⁻¹. For the same binder, the Kd [9] was 0.614 nM, the koff [9] was 0.00504 s⁻¹ and the kon [9] was 8.2e+06 M⁻¹ s⁻¹. For the same binder, the Kd [10] was 2.98 nM, the koff [10] was 0.0263 s⁻¹ and the kon [10] was 8.82e+06 M⁻¹ s⁻¹. It also gave a kon [11] of 6.81e+06 M⁻¹ s⁻¹, a Kd [12] of 0.335 nM and a koff [12] of 0.00221 s⁻¹. It also gave a kon [12] of 6.59e+06 M⁻¹ s⁻¹, a Kd [13] of 0.778 nM and a koff [13] of 0.0053 s⁻¹. It also gave a Kd [14] of 13.6 nM, a koff [14] of 0.0236 s⁻¹ and a kon [14] of 1.74e+06 M⁻¹ s⁻¹. The Kd [15] was 33.5 nM, the koff [15] was 0.109 s⁻¹ and the kon [15] was 3.26e+06 M⁻¹ s⁻¹.
